# Laboratory results reported in patent US20240294635A1 (CHIA TAI TIANQING PHARMACEUTICAL GROUP, published 2024).
# Experiments:
# [1] = target: T1, CD47 on the red cell surface (Homo sapiens (Human), UniProt Q08722 19-323); experiment: cell-based or functional assay
# CD47 on HL60 cells = CD47 on HL60 cells (UniProt Q08722 19-323, limits assumed); experiment: cell-based or functional assay
# [2] = target: T2, human CD47 protein, His Tag (ACRObiosystems, Cat. No. CD7-H5227) (human, UniProt Q08722 19-139); experiment: ELISA, plate coated with CD47-His
# T2 construct: bought reagent; also called CD47-His; hCD47-His Tag; not shown: His tag
# [3] = target: T2, human CD47 protein, His Tag …; experiment: Biacore SPR, 25 C, antibody captured on CM5 chip
# [4] = target: T1, CD47 on the red cell surface; experiment: flow cytometry on fixed red cells, antibody 1 µg/mL
# Experimental: (§1) Anticoagulated blood was collected and well mixed with an equal amount of normal saline. The mixture was centrifuged at 2000 rpm/min for 5 min, and the supernatant was removed. […] In the first two washings, the mixture was centrifuged at 2000 rpm/min for 5 min, and in the last washing, the mixture was centrifuged at 2000 rpm/min for 10 min, and the supernatant was removed.
# [5] = target: T1, CD47 on the red cell surface; experiment: flow cytometry on fixed red cells, antibody 10 µg/mL
# Experimental: as §1
# [6] = target: T3, human CD47 protein on CHO-K1-CD47 cells (human, UniProt Q08722 19-323); experiment: cell binding, CHO-K1-CD47 cells, high content imaging
# T3 construct: whole, on cells; also called CHO-K1 cells expressing human CD47 protein
# Experimental: A cell binding assay of anti-CD47 antibodies (chimeric or humanized) was performed based on the binding to a CHO-K1 cell line stably expressing CD47. CHO-K1-CD47 cells (CHO-K1 cells expressing human CD47 protein) were added to each well of a 96-well plate (Eppendorf, Cat. No. C030730.119) at 1.2×10⁴ cells per well and incubated with anti-CD47 antibodies (20 μg/mL, 1:4 dilution in PBS) at room temperature for 1-2 h. […] The cells were incubated at room temperature for 30 min. The cells were washed three times with PBS buffer. A nuclear dye Hoechst (Sigma, Cat. No. B2261) was diluted with PBS buffer at a dilution ratio of 1:500 and then added to each well at 100 μL/well for staining for 10 min. The cells were washed 3 times with PBS and analyzed using a high content screening system (manufacturer: PerkinElmer; model: Operetta).
# [7] = target: T2, human CD47 protein, His Tag …; experiment: ELISA, CD47-His coated, competition with Human-SIRPα-mFc
# Experimental: The plate was let stand at 2-8° C. overnight. The wells were aspirated to remove the coating buffer and blocked with 100 μL/well of a blocking solution (PBS with 1% (w/v) bovine serum albumin (BSA, Sigma, Cat. No. B2064-100G)) by incubation at 37° C. for 1 h. The 96-well plate was washed with a washing buffer (PBS with 0.01% (w/v) Tween 20 (Sigma, Cat. No. P9416-100ML)). […] After the 96-well plate was washed with PBS washing buffer, anti-CD47 chimeric antibodies or anti-CD47 humanized antibodies (see Table 8 for chimeric antibodies, and see Table 9 for humanized antibodies) were added. 4-fold dilution was performed with PBS buffer from a starting concentration of 20 μg/mL, with 8 gradients obtained. The plate was incubated at room temperature for 1.5 h. […] After the 96-well plate was washed with PBS buffer, 100 μL/well of a substrate solution TMB (TIANGEN, Cat. No. PA107-01) was added, and the plate was incubated at room temperature for color development for 10 min. 100 μL/well of 1 M H₂SO₄ was added to stop the reaction. Colorimetric signals were generated and read at 450 nm using a multifunctional microplate reader (manufacturer: PerkinElmer; model: EnVision). Data were analyzed using GraphPad Prism5, and EC₅₀ was calculated.
# [8] = target: T4, cynomolgus/rhesus macaque CD47 protein, His Tag (ACRObiosystems, Cat. No. CD7-C52H1) (cynomolgus monkey (cynomolgus/rhesus …, UniProt A0A2K5X523 19-141)); experiment: Biacore SPR, 25 C, antibody captured on CM5 chip
# T4 construct: bought reagent; also called Cynomolgus monkey CD47 protein
# T4 sequence (A0A2K5X523 entry or part of it limits assumed): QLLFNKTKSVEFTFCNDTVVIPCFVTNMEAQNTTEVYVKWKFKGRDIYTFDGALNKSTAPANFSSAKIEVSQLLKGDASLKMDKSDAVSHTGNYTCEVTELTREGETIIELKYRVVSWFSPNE
Binder,"red cell agglutination, lowest concentration causing it [1]","rate of phagocytosis, antibody 1 µg/mL (CD47 on HL60 cells)","rate of phagocytosis, antibody 10 µg/mL (CD47 on HL60 cells)",EC50 [2],Kd [3],MFI [4],MFI [5],EC50 [6],IC50 [7],Kd [8]
"hz3F10-3.1 (antibody, human IgG4 S228P, kappa, V domains shown, humanized 3F10, full-length heavy and light chains) VH: QVQLVQSGAEVKKPGSSVKVSCKASGYTFSRYWIEWVRQAPGQGLEWMGEFIPGSDTTNYAQKFQGRVTITADISTSTAYMELSSLRSEDTAVYYCARGGLRRMDYWGQGTLVTVSS VL: DIQMTQSPSSLSASVGDRVTITCRASSSVSSTYLHWYQQKPGKAPKLLIYTTSTLASGVPSRFSGSGSGTSYTLTISSLQPEDFATYYCQQFSDSTWTFGQGTKLEIKR",3.3 µg/mL,50.6%,58.7%,0.127 µg/mL,1.53 nM,6700 MFI,41400 MFI,1.12 µg/mL,1.68 µg/mL,–
"hz3F10-1.1 (antibody, human IgG4 S228P, kappa, V domains shown, humanized 3F10, full-length heavy and light chains) VH: QVQLVQSGAEVKKPGSSVKVSCKASGYTFSRYWIEWVRQAPGQGLEWMGEFIPGSDTTNYAQKFQGRVTITADISTSTAYMELSSLRSEDTAVYYCARGGLRRMDYWGQGTLVTVSS VL: DIQMTQSPSSLSASVGDRVTITCRASSSVSSTYLHWYQQKPGKAPKLLIYTTSTLASGVPSRFSGSGSGTDFTLTISSLQPEDFATYYCQQFSDSTWTFGQGTKLEIKR",–,41.2%,43.1%,0.07 µg/mL,0.946 nM,4450 MFI,50500 MFI,0.876 µg/mL,1.53 µg/mL,1.31 nM
"hz3F10-1.2 (antibody, human IgG4 S228P, kappa, V domains shown, humanized 3F10, full-length heavy and light chains) VH: QVQLVQSGAEVKKPGSSVKVSCKASGYTFSRYWIEWVRQAPGQGLEWMGEFIPGSDTTNYAQKFQGRVTITAEISTNTAYMELSSLRSEDTAVYYCARGGLRRMDYWGQGTLVTVSS VL: DIQMTQSPSSLSASVGDRVTITCRASSSVSSTYLHWYQQKPGKAPKLLIYTTSTLASGVPSRFSGSGSGTDFTLTISSLQPEDFATYYCQQFSDSTWTFGQGTKLEIKR",–,55.5%,38.9%,0.125 µg/mL,0.904 nM,6250 MFI,56700 MFI,1.27 µg/mL,1.69 µg/mL,1.33 nM
"hz3F10-2.1 (antibody, human IgG4 S228P, kappa, V domains shown, humanized 3F10, full-length heavy and light chains) VH: QVQLVQSGAEVKKPGSSVKVSCKASGYTFSRYWIEWVRQAPGQGLEWMGEFIPGSDTTNYAQKFQGRVTITADISTSTAYMELSSLRSEDTAVYYCARGGLRRMDYWGQGTLVTVSS VL: DIQMTQSPSSLSASVGDRVTITCRASSSVSSTYLHWYQQKPGKAPKLLIYTTSTLASGVPSRFSGSGSGTDFTLTISSLQPEDFATYYCQQFSESTWTFGQGTKLEIKR",–,47.2%,55.2%,0.0809 µg/mL,0.836 nM,8450 MFI,53200 MFI,1.07 µg/mL,1.61 µg/mL,1.17 nM
"hz3F10-2.2 (antibody, human IgG4 S228P, kappa, V domains shown, humanized 3F10, full-length heavy and light chains) VH: QVQLVQSGAEVKKPGSSVKVSCKASGYTFSRYWIEWVRQAPGQGLEWMGEFIPGSDTTNYAQKFQGRVTITAEISTNTAYMELSSLRSEDTAVYYCARGGLRRMDYWGQGTLVTVSS VL: DIQMTQSPSSLSASVGDRVTITCRASSSVSSTYLHWYQQKPGKAPKLLIYTTSTLASGVPSRFSGSGSGTDFTLTISSLQPEDFATYYCQQFSESTWTFGQGTKLEIKR",–,44.2%,34.7%,0.106 µg/mL,0.779 nM,5610 MFI,56100 MFI,1.12 µg/mL,1.73 µg/mL,1.14 nM
"hz3F10-5.1 (antibody, human IgG4 S228P, kappa, V domains shown, humanized 3F10, full-length heavy and light chains) VH: QVQLVQSGAEVKKPGSSVKVSCKASGYTFSRYWIEWVRQAPGQGLEWMGEFIPGSDTTNYAQKFQGRVTITADISTSTAYMELSSLRSEDTAVYYCARGGLRRMDYWGQGTLVTVSS VL: DIQMTQSPSSLSASVGDRVTITCRASSSVSSTYLHWYQQKPGKAPKLWIYTTSTLASGVPSRFSGSGSGTSYTLTISSLQPEDFATYYCQQFSDSTWTFGQGTKLEIKR",–,50.5%,58.5%,0.0993 µg/mL,0.96 nM,7400 MFI,50600 MFI,1.48 µg/mL,1.7 µg/mL,1.3 nM
"hz3F10-5.2 (antibody, human IgG4 S228P, kappa, V domains shown, humanized 3F10, full-length heavy and light chains) VH: QVQLVQSGAEVKKPGSSVKVSCKASGYTFSRYWIEWVRQAPGQGLEWMGEFIPGSDTTNYAQKFQGRVTITAEISTNTAYMELSSLRSEDTAVYYCARGGLRRMDYWGQGTLVTVSS VL: DIQMTQSPSSLSASVGDRVTITCRASSSVSSTYLHWYQQKPGKAPKLWIYTTSTLASGVPSRFSGSGSGTSYTLTISSLQPEDFATYYCQQFSDSTWTFGQGTKLEIKR",–,47.1%,29.6%,0.106 µg/mL,0.896 nM,5130 MFI,53300 MFI,1.26 µg/mL,1.82 µg/mL,1.4 nM
"hz3F10-6.1 (antibody, human IgG4 S228P, kappa, V domains shown, humanized 3F10, full-length heavy and light chains) VH: QVQLVQSGAEVKKPGSSVKVSCKASGYTFSRYWIEWVRQAPGQGLEWMGEFIPGSDTTNYAQKFQGRVTITADISTSTAYMELSSLRSEDTAVYYCARGGLRRMDYWGQGTLVTVSS VL: DIQMTQSPSSLSASVGDRVTITCRASSSVSSTYLHWYQQKPGKAPKLWIYTTSTLASGVPSRFSGSGSGTSYTLTISSLQPEDFATYYCQQFSESTWTFGQGTKLEIKR",–,47.6%,60.9%,0.0563 µg/mL,0.592 nM,7580 MFI,53000 MFI,1.18 µg/mL,1.77 µg/mL,2.47 nM
"hz3F10-6.2 (antibody, human IgG4 S228P, kappa, V domains shown, humanized 3F10, full-length heavy and light chains) VH: QVQLVQSGAEVKKPGSSVKVSCKASGYTFSRYWIEWVRQAPGQGLEWMGEFIPGSDTTNYAQKFQGRVTITAEISTNTAYMELSSLRSEDTAVYYCARGGLRRMDYWGQGTLVTVSS VL: DIQMTQSPSSLSASVGDRVTITCRASSSVSSTYLHWYQQKPGKAPKLWIYTTSTLASGVPSRFSGSGSGTSYTLTISSLQPEDFATYYCQQFSESTWTFGQGTKLEIKR",–,49.3%,44.2%,0.129 µg/mL,0.765 nM,3440 MFI,55900 MFI,1.49 µg/mL,1.84 µg/mL,1.15 nM
"hz16E5-1.2 (antibody, human IgG4 S228P, kappa, humanized 16E5, full-length heavy and light chains) heavy: not shown light: DIQMTQSPSSLSASVGDRVTITCRSSQSLVHSNGYTYLHWYQQKPGKAPKLLIYKVSNRFSGVPSRFSGSGSGTDFTLTISSLQPEDFATYYCSQSTHVPPTFGQGTKLEIKRTVAAPSVFIFPPSDEQLKSGTASVVCLLNNFYPREAKVQWKVDNALQSGNSQESVTEQDSKDSTYSLSSTLTLSKADYEKHKVYACEVTHQGLSSPVTKSFNRGEC",3.3 µg/mL,5.1%,17.8%,0.16 µg/mL,9.31 nM,913 MFI,4730 MFI,–,2.94 µg/mL,2.26 nM
"hz16E5-3.2 (antibody, human IgG4 S228P, kappa, humanized 16E5, full-length heavy and light chains) heavy: not shown light: DAQMTQSPSSLSASVGDRVTITCRSSQSLVHSNGYTYLHWYQQKPGKAPKLLIYKVSNRFSGVPSRFSGSGSGTDFTLTISSLQPEDFATYYCSQSTHVPPTFGQGTKLEIKRTVAAPSVFIFPPSDEQLKSGTASVVCLLNNFYPREAKVQWKVDNALQSGNSQESVTEQDSKDSTYSLSSTLTLSKADYEKHKVYACEVTHQGLSSPVTKSFNRGEC",3.3 µg/mL,3.02%,2.03%,0.215 µg/mL,17.1 nM,860 MFI,4200 MFI,–,2.05 µg/mL,3.1 nM
"hz14A9-2.3 (antibody, human IgG4 S228P, kappa, V domains shown, humanized 14A9, full-length heavy and light chains) VH: QVQLVQSGAEVKKPGASVKVSCKVSGFNIEDDYIEWVRQAPGQGLEWMGRIDPANDKTKYAQKFQGRVTMTGDTSTNTVYMELSSLRSEDTAVYYCARPGLRRYYSMDYWGQGTLVTVSS VL: DIQMTQSPSSLSASVGDRVTITCKASENVVSYVSWYQQKPGKAPKLLIYGASNRYTGVPSRFIGSGSSTDFTLTISSLQPEDFATYYCGQSYSYPLTFGQGTKLEIKR",–,71.5%,74.9%,0.157 µg/mL,0.204 nM,2510 MFI,11000 MFI,0.499 µg/mL,0.703 µg/mL,3.07 nM
"hz14A9-2.4 (antibody, human IgG4 S228P, kappa, V domains shown, humanized 14A9, full-length heavy and light chains) VH: QVQLVQSGAEVKKPGASVKVSCKVSGFNIEDDYIEWVRQAPGQGLEWMGRIDPANDKTKYAQKFQGRVTMTGDTSTNTVYMELSSLRSEDTAVYYCTRPGLRRYYSMDYWGQGTLVTVSS VL: DIQMTQSPSSLSASVGDRVTITCKASENVVSYVSWYQQKPGKAPKLLIYGASNRYTGVPSRFIGSGSSTDFTLTISSLQPEDFATYYCGQSYSYPLTFGQGTKLEIKR",–,81.7%,81.7%,0.339 µg/mL,8.55 nM,5240 MFI,15000 MFI,0.471 µg/mL,0.621 µg/mL,2 nM
